Key:
[1] = biological target: T1, VAMP7-syntaxin1-SNAP25 ternary SNARE complex, labeled with Oregon Green 488 (rat, UniProt Q9JHW5 1-190; P32851 1-265; P60881-2 1-206, C21S | C56V | C145S | S249C | K253C, Oregon Green 488 (maleimide) on cysteines; the labeled endogenous and mutant cysteines are shown in Figure 1A); experiment: other fluorescence titration; change in Oregon Green 488 fluorescence intensity of the labeled SNARE complex as a function of α-SNAP concentration; fit y = Fmax·x/(KD + x); three independent experiments; settings: both partners purified
T1 construct: VAMP7, rat, residues 1-190; syntaxin1A, rat, residues 1-265; SNAP25A, rat; Removal of the His6 tag is told only for α-SNAP; also called VAMP7(1–190)-C21S/C56V-syntaxin1A(1–265)-C145S/S249C/K253C-SNAP25A; source: E. coli BL21(DE3), coexpressed, purified (Ni-NTA, Superdex 200); copies: + +
T1 sequence (Q9JHW5 1-190 C21S/C56V, chain 1 of 3): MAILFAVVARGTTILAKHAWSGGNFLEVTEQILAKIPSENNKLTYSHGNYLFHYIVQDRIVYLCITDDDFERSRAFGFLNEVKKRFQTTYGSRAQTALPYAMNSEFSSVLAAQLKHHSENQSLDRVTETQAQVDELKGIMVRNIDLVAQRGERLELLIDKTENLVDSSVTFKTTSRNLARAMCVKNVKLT
T1 sequence (P32851 1-265 C145S/S249C/K253C, chain 2 of 3): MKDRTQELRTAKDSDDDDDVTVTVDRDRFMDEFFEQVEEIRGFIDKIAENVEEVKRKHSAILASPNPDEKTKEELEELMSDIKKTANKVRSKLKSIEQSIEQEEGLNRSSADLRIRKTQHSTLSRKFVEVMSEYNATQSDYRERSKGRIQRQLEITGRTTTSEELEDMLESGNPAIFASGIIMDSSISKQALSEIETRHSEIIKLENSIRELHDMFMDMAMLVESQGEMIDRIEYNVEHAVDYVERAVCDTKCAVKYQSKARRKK
T1 sequence (P60881 other isoform, or with tags, fused parts or gaps with the stated changes, chain 3 of 3): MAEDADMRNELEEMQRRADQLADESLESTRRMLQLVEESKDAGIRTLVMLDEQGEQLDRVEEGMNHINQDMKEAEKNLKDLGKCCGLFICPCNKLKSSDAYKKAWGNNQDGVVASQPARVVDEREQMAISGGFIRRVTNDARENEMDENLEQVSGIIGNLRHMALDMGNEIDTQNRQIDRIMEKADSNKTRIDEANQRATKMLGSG

[2] = biological target: T2, ^ΔNVAMP7-^ΔNsyntaxin1-SNAP25 core complex (rat, UniProt Q9JHW5 119-190; P32851 191-265; P60881-2 1-206, S249C | K253C); experiment: SEC-MALS; 30 μM SNARE complex and 30 μM α-SNAP (1:1 mixture); WTC-030S5 column; 20 mM Tris-HCl (pH 8.0), 50 mM NaCl, 0.1 mM TCEP; settings: both partners purified
T2 construct: VAMP7, rat, residues 119-190; syntaxin1A, rat, residues 191-265; the construct's printed name also holds C145S, which lies outside 191-265; SNAP25A, rat; also called ^ΔNSNARE complex; core of the VAMP7-syntaxin1-SNAP25 SNARE complex (without the N-terminal domains); source: E. coli, coexpressed, purified; copies: + +
T2 sequence (Q9JHW5 119-190, stated change not applied, chain 1 of 3): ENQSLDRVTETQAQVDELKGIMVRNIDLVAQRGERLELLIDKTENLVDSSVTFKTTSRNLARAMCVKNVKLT
T2 sequence (P32851 191-265 S249C/K253C, chain 2 of 3): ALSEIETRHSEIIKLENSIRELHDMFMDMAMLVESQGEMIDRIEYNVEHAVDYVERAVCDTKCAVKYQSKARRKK
T2 sequence (P60881 other isoform, or with tags, fused parts or gaps S249C | K253C | S249C | K253C | mutant, chain 3 of 3): as the sequence (P60881 other isoform, or with tags, fused parts or gaps with the stated changes, chain 3 of 3) above

B1: α-soluble NSF attachment protein (α-SNAP) (natural protein, rat, UniProt P54921 1-295, looked up)
chain: MDTSGKQAEAMALLAEAERKVKNSQSFFSGLFGGSSKIEEACEIYARAANMFKMAKNWSAAGNAFCQAAQLHLQLQSKHDAATCFVDAGNAFKKADPQEAINCLMRAIEIYTDMGRFTIAAKHHISIAEIYETELVDVEKAIAHYEQSADYYKGEESNSSANKCLLKVAGYAAQLEQYQKAIDIYEQVGTSAMDSPLLKYSAKDYFFKAALCHFCIDMLNAKLAVQKYEELFPAFSDSRECKLMKKLLEAHEEQNVDSYTESVKEYDSISRLDQWLTTMLLRIKKTIQGDEEDLR
notes: α-SNAP, rat; His6 tag removed with tobacco etch virus protease; source: E. coli BL21(DE3), purified (Ni-NTA, Superdex 200)
binding result [1]: binds
stoichiometry N [2]: 1 α-SNAP per SNARE complex

Source: paper PMC3750193, “Disassembly of All SNARE Complexes by N-Ethylmaleimide-sensitive Factor (NSF) Is Initiated by a Conserved 1:1 Interaction between α-Soluble NSF Attachment Protein (SNAP) and SNARE Complex*^([image sbox.jpg])” (The Journal of Biological Chemistry, 2013)
